{"source": "IntAct's records for PubMed 25281559", "parents": {"B1": {"name": "Casein kinase I homolog HRR25 (Saccharomyces cerevisiae), P29295 (parent)", "chain": "MDLRVGRKFRIGRKIGSGSFGDIYHGTNLISGEEVAIKLESIRSRHPQLDYESRVYRYLSGGVGIPFIRWFGREGEYNAMVIDLLGPSLEDLFNYCHRRFSFKTVIMLALQMFCRIQYIHGRSFIHRDIKPDNFLMGVGRRGSTVHVIDFGLSKKYRDFNTHRHIPYRENKSLTGTARYASVNTHLGIEQSRRDDLESLGYVLIYFCKGSLPWQGLKATTKKQKYDRIMEKKLNVSVETLCSGLPLEFQEYMAYCKNLKFDEKPDYLFLARLFKDLSIKLEYHNDHLFDWTMLRYTKAMVEKQRDLLIEKGDLNANSNAASASNSTDNKSETFNKIKLLAMKKFPTHFHYYKNEDKHNPSPEEIKQQTILNNNAASSLPEELLNALDKGMENLRQQQPQQQVQSSQPQPQPQQLQQQPNGQRPNYYPEPLLQQQQRDSQEQQQQVPMATTRATQYPPQINSNNFNTNQASVPPQMRSNPQQPPQDKPAGQSIWL", "partner": "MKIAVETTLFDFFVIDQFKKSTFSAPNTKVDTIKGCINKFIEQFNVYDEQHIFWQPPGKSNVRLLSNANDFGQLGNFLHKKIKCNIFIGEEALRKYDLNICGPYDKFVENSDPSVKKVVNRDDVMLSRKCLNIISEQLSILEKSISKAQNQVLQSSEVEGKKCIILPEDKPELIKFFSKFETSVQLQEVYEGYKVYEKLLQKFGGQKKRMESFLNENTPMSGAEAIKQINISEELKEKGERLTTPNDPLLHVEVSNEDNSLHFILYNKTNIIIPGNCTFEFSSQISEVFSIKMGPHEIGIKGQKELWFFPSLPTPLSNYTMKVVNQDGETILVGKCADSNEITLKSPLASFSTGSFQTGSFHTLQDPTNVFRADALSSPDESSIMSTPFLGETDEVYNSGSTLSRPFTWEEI"}}}
{"variants_of": "B1", "settings": "with atg34_yeast ATG34, Q12292"}
{"variant": "K38A", "effect of a mutation on the interaction": "disrupting interaction"}
